Measured values reported in US20090068679A1.

Columns and labels:
[1] = target: recombinant human PlGF (R&D Systems, Catalog No. 264-PG/CF) (human) (UniProt P49763); test: sandwich ELISA: mAb coated 3 ug/ml; PlGF 25 ng/ml; anti-PlGF-POD
[2] = target: recombinant human PlGF (R&D Systems, Catalog No. 264-PG/CF) (human) (UniProt P49763); test: sandwich ELISA: mAb coated 3 ug/ml; PlGF 50 ng/ml; anti-PlGF-POD
[3] = target: recombinant human PlGF (R&D Systems, Catalog No. 264-PG/CF) (human) (UniProt P49763); test: sandwich ELISA: mAb coated 3 ug/ml; PlGF 0.78 ng/ml; anti-PlGF-POD
[4] = target: recombinant human PlGF (R&D Systems, Catalog No. 264-PG/CF) (human) (UniProt P49763); test: sandwich ELISA: mAb coated 3 ug/ml; PlGF 1.56 ng/ml; anti-PlGF-POD
[5] = target: recombinant human PlGF (R&D Systems, Catalog No. 264-PG/CF) (human) (UniProt P49763); test: sandwich ELISA: mAb coated 3 ug/ml; PlGF 12.5 ng/ml; anti-PlGF-POD
[6] = target: recombinant human PlGF (R&D Systems, Catalog No. 264-PG/CF) (human) (UniProt P49763); test: sandwich ELISA: mAb coated 3 ug/ml; PlGF 3.13 ng/ml; anti-PlGF-POD
[7] = target: recombinant human PlGF (R&D Systems, Catalog No. 264-PG/CF) (human) (UniProt P49763); test: sandwich ELISA: mAb coated 3 ug/ml; PlGF 6.25 ng/ml; anti-PlGF-POD
[8] = target: recombinant human PlGF (R&D Systems, Catalog No. 264-PG/CF) (human) (UniProt P49763); test: sandwich ELISA: mAb 0.1 ug/ml on anti-mouse IgG plate, PlGF 0.1 ug/ml, anti-PlGF-POD
[9] = target: recombinant human PlGF (R&D Systems, Catalog No. 264-PG/CF) (human) (UniProt P49763); test: sandwich ELISA: mAb 1.0 ug/ml on anti-mouse IgG plate, PlGF 0.1 ug/ml, anti-PlGF-POD
[10] = target: P/GF/sFlt-1 complex (gP/GF) (human) (UniProt P49763); test: ELISA: PlGF 1 ug/ml on plate-captured Flt-1/Fc 1 ug/ml; mAb 0.1 ug/ml; anti-mouse IgG-POD
[11] = target: P/GF/sFlt-1 complex (gP/GF) (human) (UniProt P49763); test: ELISA: PlGF 1 ug/ml on plate-captured Flt-1/Fc 1 ug/ml; mAb 1.0 ug/ml; anti-mouse IgG-POD
[12] = target: P/GF/sFlt-1 complex (gP/GF) (human) (UniProt P49763); test: sandwich ELISA: mAb coated 3 ug/ml; PlGF 25 + Flt-1/Fc 400 (ng/ml) pre-incubated; anti-VEGF R1-POD
[13] = target: P/GF/sFlt-1 complex (gP/GF) (human) (UniProt P49763); test: sandwich ELISA: mAb coated 3 ug/ml; PlGF 0.39 + Flt-1/Fc 400 (ng/ml) pre-incubated; anti-VEGF R1-POD
[14] = target: P/GF/sFlt-1 complex (gP/GF) (human) (UniProt P49763); test: sandwich ELISA: mAb coated 3 ug/ml; PlGF 0.78 + Flt-1/Fc 400 (ng/ml) pre-incubated; anti-VEGF R1-POD
[15] = target: P/GF/sFlt-1 complex (gP/GF) (human) (UniProt P49763); test: sandwich ELISA: mAb coated 3 ug/ml; PlGF 1.56 + Flt-1/Fc 400 (ng/ml) pre-incubated; anti-VEGF R1-POD
[16] = target: P/GF/sFlt-1 complex (gP/GF) (human) (UniProt P49763); test: sandwich ELISA: mAb coated 3 ug/ml; PlGF 12.5 + Flt-1/Fc 400 (ng/ml) pre-incubated; anti-VEGF R1-POD
[17] = target: P/GF/sFlt-1 complex (gP/GF) (human) (UniProt P49763); test: sandwich ELISA: mAb coated 3 ug/ml; PlGF 3.13 + Flt-1/Fc 400 (ng/ml) pre-incubated; anti-VEGF R1-POD
[18] = target: P/GF/sFlt-1 complex (gP/GF) (human) (UniProt P49763); test: sandwich ELISA: mAb coated 3 ug/ml; PlGF 6.25 + Flt-1/Fc 400 (ng/ml) pre-incubated; anti-VEGF R1-POD

antibody MAB264 from R&D Systems was tested, and the Extinction at 450 nm [1] was 1.47, the Extinction at 450 nm [2] was 2.5 and the Extinction at 450 nm [3] was 0.05. For the same substance, the Extinction at 450 nm [4] was 0.081, the Extinction at 450 nm [5] was 0.885 and the Extinction at 450 nm [6] was 0.232. It also gave an Extinction at 450 nm [7] of 0.468, an Extinction at 450 nm [8] of 1.9 and an Extinction at 450 nm [9] of 2.5. For the same substance, the Extinction at 450 nm [10] was 0.217, the Extinction at 450 nm [11] was 0.691 and the Extinction at 450 nm [12] was 2.19. For the same substance, the Extinction at 450 nm [13] was 0.094, the Extinction at 450 nm [14] was 0.146 and the Extinction at 450 nm [15] was 0.272. The Extinction at 450 nm [16] was 1.61, the Extinction at 450 nm [17] was 0.529 and the Extinction at 450 nm [18] was 0.883.
